Assay [1] has as its target T1, human CD137 expressed on the surface of CHO cells (human, UniProt Q07011 24-255).
T1 construct: Also used for the Jurkat reporter cells that express human CD137 (functional rows); also called CHO human CD137 cells; CHO huCD137
Kind of assay: FMAT, CHO human CD137 cells. As to the method:
(§1) Binding of His-tagged molecules to CHO human CD137, CHO parent, CHO human PSMA, DU145 PSMA and DU145 parent cells was assessed using Fluorescence Microvolume Assay Technology (FMAT). All reagents were prepared in FMAT assay buffer (pH 7.4) containing PBS, 0.1% Bovine Serum Albumin, 0.05% Sodium Azide. Serially diluted samples were transferred into 384 well black clear-bottomed assay plates (Costar cat. no. 3655) and incubated for a minimum of 2 hours at room temperature with 1.5 nM Anti-His (Millipore cat. no. 05-949), […] Goat Anti-Mouse Alexa Fluor-488 (Jackson ImmunoResearch cat. no. 115-545-071) and 2000 cells/well pre-stained with DRAQ5 (Thermo Scientific cat. no. 62251). Fluorescence emission was then measured on the TTP Mirrorball plate reader in the FL2 (502 nm-537 nm) and FL5 (677-800 nm) channels following excitation at 488 nm and 640 nm. Data was gated on FL5 perimeter and peak intensity and the FL2 median mean fluorescence intensity of the gated data used for determination of VH binding. Monovalent CD137 specific Humabody® VH, bispecific and trispecific molecules with a CD137 binding arm bound to CHO CD137 expressing cells. Monovalent PSMA specific Humabody® VH, bispecific and trispecific molecules with a PSMA binding arm bound to PSMA expressing cells.

In assay [2] the target is T2, human CD137-human Fc chimeric protein (Acro Biosystems cat no. 41B-H5258) (human, UniProt Q07011 24-186).
T2 construct: Bought protein; The Octet Protein G and Biacore experiments name no catalogue number; also called human CD137Fc recombinant protein; human CD137-Fc recombinant protein; not shown: human IgG1 Fc tag
Briefly: BLI (Octet RED384), CD137-Fc on Protein G sensors, 1:1 model. The method, then: Binding kinetics of purified VH, bivalent VH and trivalent VH molecules were measured on a ForteBio Octet RED 384 instrument. CD137-Fc tagged protein was diluted to 3 μg/ml in kinetics buffer (0.1% BSA, 0.02% Tween, 1×PBS) and coupled to Protein G biosensors (ForteBio cat no. 18-5082) via the Fc tag. VH were serially diluted (typically 1:2 dilution series starting with 50 nM, VH at the highest concentration) and binding to the CD137-Fc-coupled Protein G biosensors measured. Binding kinetics were determined from the (blank subtracted) sensor gram trace using 1:1 binding models and ForteBio Octet Data Analysis 9.0 software. Example kinetic and binding affinity data obtained is shown Table 10 (monovalent VH) and FIG. 1 (bivalent and trivalent molecules).

Assay [3] has as its target T1, human CD137 expressed on the surface of …. Kind of assay: FMAT ligand inhibition, CD137 Ligand on CHO human CD137 cells. The method, then:
In parallel to the binding assay, periplasmic extracts were tested for their ability to inhibit the interaction of human CD137 ligand protein with CHO human CD137 cells in an FMAT format. Total binding controls containing diluted periplasmic extract sample buffer and non-specific binding controls containing excess non-Fc tagged competitor were set up on each plate for data normalisation. Fluorescence signal was measured using the TTP Mirrorball and the FL2 median mean fluorescence intensity of gated used for the data normalisation. The data was expressed as a % of the total binding control (% control) after subtraction of the background signal determined from the non-specific binding control wells.
The ability of purified Humabody VH to inhibit the binding of CD137 Ligand to CHO human CD137 cells was measured in the FMAT ligand inhibition assay essentially as described in Example 6. VH inhibited the binding of human CD137 Ligand to human CD137.

Assay [4] addresses T3, CD137 on pre-stimulated human CD8+ T cells (human, UniProt Q07011 24-255).
T3 construct: also called pre-stimulated CD8+ cells; primary T cells
Kind of assay: flow cytometry, PMA/ionomycin-stimulated human CD8+ T cells, mean of 2-3 donors. The method, then: Binding to primary T cells was measured using flow cytometry. Peripheral blood mononuclear cells (PBMCs) were isolated from human blood by density gradient centrifugation then CD8+ T cells purified using a negative selection isolation kit according to the manufacturer's protocol (Miltenyi Biotech cat no 130-042-401). T-cells were stimulated PMA/Ionomycin for 48-72 hours in RPMI media supplemented with 10% FBS, 2 mM Glutamine, 1× Pen/Strep. Cells were transferred into 96 well plates, blocked for 10 mins with staining buffer (PBS/1% BSA/0.05% Sodium Azide) then incubated with serially diluted VH in staining buffer (PBS/1% BSA) for 30 mins-1 hour at 4° C. Cells were washed by centrifugation then VH binding detected using Anti His antibody (Millipore 05-949) and Goat Anti Mouse Alexa Fluor-488 (Jackson ImmunoResearch cat no. 115-545-071). A Live Dead near IR stain (Molecular Probes cat no. L10119) was used for discrimination of live cells. After further washing cells were fixed and fluorescence measured by flow cytometry.

Assay [5] addresses T4, human PSMA expressed on cells (human, UniProt Q04609 1-750).
T4 construct: One molecule for both cell lines (CHO human PSMA, DU145 PSMA); the cell line stands under assay; also called CHO human PSMA; CHO PSMA
Kind of assay: FMAT, DU145 PSMA cells. The method, then:
as §1

Assay [6] concerns the target T4, human PSMA expressed on cells. Kind of assay: FMAT, CHO human PSMA cells. The method, then: as §1
Assay [7] concerns the target T2, human CD137-human Fc chimeric protein …. Kind of assay: HTRF binding assay. As to the method: (§2) Binding to human CD137Fc recombinant protein (Acro Biosystems 41B-H5258), rhesus CD137Fc recombinant protein (Sino Biologicals cat no. 90847-K02H) and mouse CD137Fc protein (Acro Biosystems 41B-M5258) was measured using an HTRF Binding assay format. All reagents and serially diluted VH were prepared in assay buffer containing PBS, 0.1% BSA and 0.4M Potassium Fluoride. Samples or assay buffer (non-specific binding) were incubated with 0.5 nM human, rhesus or mouse CD137, 1 nM Anti human-Fc Cryptate PAb (Cisbio cat. no. 61HFCKLB) and 20 nM anti His-D2 (CisBio cat no 61HISDLA) in black 384-shallow well assay plates for a minimum of 3 hours at room temperature. Time-resolved fluorescent emission at 620 nm and 665 nm was measured following excitation at 337 nm on the BMG PHERAstar plate reader. The HTRF ratio were calculated ((665 nm emission/620 nm emission)*10000) and the data corrected for (non-specific binding) to give the specific binding signal. VH bound to human and rhesus CD137 but not to mouse CD137 protein.

Assay [8] deals with T5, rhesus CD137Fc recombinant protein (Sino Biologicals cat no. 90847-K02H) (rhesus; human, UniProt H9Z8K9 24-186).
T5 construct: Bought protein; also called rhesus CD137-human IgG1 Fc tagged protein; not shown: human IgG1 Fc tag
T5 sequence: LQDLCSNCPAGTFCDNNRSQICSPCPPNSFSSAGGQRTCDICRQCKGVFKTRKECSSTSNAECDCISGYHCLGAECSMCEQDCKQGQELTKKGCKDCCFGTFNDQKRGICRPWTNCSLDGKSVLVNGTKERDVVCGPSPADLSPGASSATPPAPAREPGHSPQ
Briefly: HTRF binding assay. As to the method: as §2

The target in assay [9] is T6, mouse CD137Fc protein (Acro Biosystems 41B-M5258) (mouse, UniProt P20334 24-187).
T6 construct: Bought protein; also called mouse CD137 protein; not shown: Fc tag, detected with anti human-Fc
T6 sequence (looked up): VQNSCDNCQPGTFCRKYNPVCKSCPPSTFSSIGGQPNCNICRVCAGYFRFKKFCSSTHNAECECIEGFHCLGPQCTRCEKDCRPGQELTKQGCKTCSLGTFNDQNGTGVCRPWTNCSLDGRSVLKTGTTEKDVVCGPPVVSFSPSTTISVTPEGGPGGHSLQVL
Kind of assay: HTRF binding assay. As to the method: as §2

The target in assay [10] is T7, human GITR-Fc (R&D Systems cat no. 689-GR) (human, UniProt Q9Y5U5 26-161).
T7 construct: Bought protein; also called GITR (Glucocorticoid-induced TNFR-related); not shown: Fc tag
T7 sequence (looked up): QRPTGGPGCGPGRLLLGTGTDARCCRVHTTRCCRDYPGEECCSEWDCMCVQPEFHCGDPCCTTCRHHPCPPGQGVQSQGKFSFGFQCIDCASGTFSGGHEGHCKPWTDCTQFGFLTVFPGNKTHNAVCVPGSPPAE
Kind of assay: ELISA, coated GITR-Fc. The method, then:
(§3) Specificity of binding for CD137 over the tumour necrosis factor receptor family members OX40 and GITR (Glucocorticoid-induced TNFR-related) was determined using an ELISA assay. Nunc Maxisorp plates were coated with 1 ug/ml human CD137-Fc recombinant protein (Acro Biosystems 41B-H5258), human GITR-Fc (R&D Systems cat no. 689-GR) human OX40-Fc (R&D Systems cat no. 3388-OX) in sodium carbonate buffer overnight at 4° C. then washed twice with PBS. Non-specific protein interactions were blocked by incubation with 1% (w/v) skimmed milk powder (Marvel®) in PBS/0.1% Tween-20 for 1 hour at room temperature. Plates were washed twice with PBS then VH or antibody control (1 ug/ml) added for 1 hour at room temperature. Following three washes with PBS/0.1% Tween-20 a 1:1000 dilution of anti His-HRP (VH detection) or anti mouse-HRP (positive control mouse monoclonal antibody detection) was added in 1% Marvel/PBS/0.1% Tween-20. The detection antibodies were allowed to bind for 1 hour at room temperature then the plates were washed twice in PBS/0.1% Tween-20 and once in PBS. The ELISA was developed using TMB substrate and the reaction was stopped by the addition of 50 ul 0.5M H₂SO₄ solution. The absorbance at 450 nm was measured using the BMG Pherastar.

The target in assay [11] is T8, human OX40-Fc (R&D Systems cat no. 3388-OX) (human, UniProt P43489 29-216).
T8 construct: Bought protein; not shown: Fc tag
T8 sequence (looked up): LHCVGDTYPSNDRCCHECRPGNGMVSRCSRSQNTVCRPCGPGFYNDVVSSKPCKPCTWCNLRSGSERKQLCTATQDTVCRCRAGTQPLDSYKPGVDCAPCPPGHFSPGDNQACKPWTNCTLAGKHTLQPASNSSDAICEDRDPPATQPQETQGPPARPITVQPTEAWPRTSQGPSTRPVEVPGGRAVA
Kind of assay: ELISA, coated OX40-Fc. As to the method:
as §3

T1 sequence (Q07011 24-255 limits assumed): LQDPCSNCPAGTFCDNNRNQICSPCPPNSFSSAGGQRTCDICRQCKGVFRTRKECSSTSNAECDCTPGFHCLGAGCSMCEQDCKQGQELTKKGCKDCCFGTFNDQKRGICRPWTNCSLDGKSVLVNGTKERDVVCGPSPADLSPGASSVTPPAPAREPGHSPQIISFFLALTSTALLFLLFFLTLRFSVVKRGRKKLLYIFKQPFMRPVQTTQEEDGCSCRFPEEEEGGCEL
T3 sequence (Q07011 24-255 limits assumed): as above
T4 sequence (Q04609 whole entry): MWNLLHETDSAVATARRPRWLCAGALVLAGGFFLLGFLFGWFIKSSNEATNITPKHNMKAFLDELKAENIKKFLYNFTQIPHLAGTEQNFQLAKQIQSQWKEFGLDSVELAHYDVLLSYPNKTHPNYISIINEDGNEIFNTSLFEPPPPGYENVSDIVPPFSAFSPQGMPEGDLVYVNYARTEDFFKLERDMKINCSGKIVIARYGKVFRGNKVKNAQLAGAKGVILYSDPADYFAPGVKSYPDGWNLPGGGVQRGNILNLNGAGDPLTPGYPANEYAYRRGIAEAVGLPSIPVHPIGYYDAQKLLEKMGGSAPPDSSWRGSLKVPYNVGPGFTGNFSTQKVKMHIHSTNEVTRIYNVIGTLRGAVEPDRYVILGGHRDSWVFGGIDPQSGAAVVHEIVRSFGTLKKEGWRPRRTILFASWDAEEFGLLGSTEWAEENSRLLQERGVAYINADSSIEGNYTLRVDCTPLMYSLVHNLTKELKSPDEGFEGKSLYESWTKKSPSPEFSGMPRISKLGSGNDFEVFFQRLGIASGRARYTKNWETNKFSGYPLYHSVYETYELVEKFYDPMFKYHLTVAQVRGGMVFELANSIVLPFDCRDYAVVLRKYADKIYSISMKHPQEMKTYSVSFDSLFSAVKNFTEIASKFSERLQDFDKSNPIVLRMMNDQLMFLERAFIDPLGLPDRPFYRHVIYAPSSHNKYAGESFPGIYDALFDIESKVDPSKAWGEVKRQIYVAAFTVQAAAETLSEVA

B1: Humabody VH 2.26 (VHH)
VHH: EVQLVESGGGLVKPGGSLRLSCTASGFTFTDYYMSWFRQAPGKGLEWVSHISSSGTTIDYADSVKGRFTISRDNAKNSLYLQMNSLRADDTAVYYCAREDIRMPGTTDFDNWGQGTLVTVSS
notes: human single VH domain
For the molecule B1, in assay [1], the EC50 was 0.18 nM. Also, in assay [2], the affinity, expressed as Kd, was 4.7 nM; the dissociation rate constant (koff) is 0.00842 s⁻¹; the on-rate (kon) came to 1.8e+06 M⁻¹ s⁻¹. Moreover, 8.5 nM corresponded to half-maximal inhibition in [3] (IC50). In [4], this molecule registered a half-maximal effective concentration (EC50) of 2.8 nM.

B2: 4.1-6GS-1.1-6GS-VH (MSA) (bispecific antibody)
chain: EVQLVESGGGVVQPGRSLRLSCAASGFSFSGYGMHWVRQAPGKGLEWVAYISYDGSNKYYADSVKGRFTISRDNSKNTLYLQMNSLRAEDTAVYYCAKDPAWGLRLGESSSYDFDIWGQGTMVTVSSGGGGSGGGGSGGGGSGGGGSGGGGSGGGGSEVQLVESGGGLVQPGGSLRLSCAASGFTFSSHWMTWFRQAPGKGLEWVAHIKEDGSEKYYEDSVEGRFTVSRDNAKNSVYLQMNSLRAEDTAVYYCARGGDGYSDSHFGVDVWGQGTTVTVSSGGGGSGGGGSGGGGSGGGGSGGGGSGGGGSQVQLVESGGGLVQPGGSLRLSCAASGFTFSSYAMSWVRQAPGKGLEWVATISDSGSSADYADSVKGRFTISRDNSKNTLYLQMNSLRAEDTAVYYCARGRYNWNPRALGIWGQGTMVTVSS
notes: trispecific tandem VH (PSMA, CD137, mouse serum albumin); also called 4.1-6GS-1.1-VH (MSA); 4.1-6GS-1.1-6GS-MSA; not shown: His tag
As for B2, the values for the 50% effective concentration (EC50) in [5], in assay [6] and in [1] were 0.36 nM, 0.32 nM and 0.58 nM, respectively.

B3: Humabody VH 2.2 (VHH)
VH: EVQLVESGGGLVKPGGSLRVSCAASGFTFSDYYMSWFRQAPGKGLEWVSYISGSGDIIDYADSVKGRFTISRDNAKNSLYLQMNSLRAEDTAVYHCAKEDSRIPGTTDFDNWGQGTLVTVSSHHHHHH
notes: human single VH domain
Regarding B3, the EC50 is 0.91 nM in assay [7], 0.56 nM in assay [8], 0.18 nM in assay [1] and 0.74 nM in [4]. Besides, the binding result is “no binding” in [9], “no binding (tested: 1 ug/ml)” in assay [10] and “no binding (tested: 1 ug/ml)” in assay [11].
